Test results as given in patent publication US9018171B2, “Uses of an immunomodulatory protein (GMI) from Ganoderma microsporum” (Mycomagic Biotechnology Co., Ltd., priority 2010, dated 2015).
Entries after “also recorded” stand apart in the source; their conditions may differ. Read-outs that look alike come from different tables or passages of the source.

Key:
KM12 = test: NCI60 in vitro screening, Colon Cancer; type: cell-based
A549 cells [1] = test: Cell invasion assay (modified Boyden chamber, Matrigel); type: cell-based, human
Protocol: A549 cells (2×10^4 cells/well) were seeded onto the upper chamber of membrane and treated with different concentrations of GMI (4, 8, 16 μg/ml) for 2 hours. The bottom chamber was filled with DMEM supplemented with EGF 10 ng/ml or 100 ng/ml. After about 24 h, the invasive A549 cells passed through the membrane and were quantified by counting the cells that migrated onto the membrane. Cells were fixed, stained, and counted as described in the text. The data represent mean±SD.
Cell invasion assays were performed using modified Boyden chambers 6.5 mm in diameter, with […] porous (8 μm) polycarbonate membrane separating the two chambers (Transwell; Costar, Cambridge, Mass.). The membrane of the upper chamber was coated with Matrigel (0.3 mg/mL; BD Biosciences Discovery Labware) for 3 hours. Condition medium was prepared from A549 cells which were pretreated with or without GMI, LY294002 (50 μM), or AG1478 (2 μM) for 8 h. To the medium of the bottom chamber was added 10% FBS-DMEM containing EGF (10 ng/ml) or condition medium. Cells were trypsinized, centrifuged, and resuspended at 4×10^5 cells/mL in 0.5% FBS-DMEM. After 24 h incubation, the cells on the upper well and the membranes coated with Matrigel were fixed with methanol, and stained with 20% Giemsa solution (Merck). The cells that were attached to the lower surface of the polycarbonate filter were counted under a light microscope (magnification, X 100). The experiments were performed in triplicate.

CAKI-1 = test: NCI60 in vitro screening, Renal Cancer; type: cell-based
HS 578T = test: NCI60 in vitro screening, Breast Cancer; type: cell-based
HOP-92 = type: cell-based; conditions: HOP-92, one dose
A549/ATCC = type: cell-based
PC-3 = test: NCI60 in vitro screening, Prostate Cancer; type: cell-based
K-562 = test: NCI60 in vitro screening, Leukemia; type: cell-based
SF-268 = test: NCI60 in vitro screening, CNS Cancer; type: cell-based
SNB-19 = test: NCI60 in vitro screening, CNS Cancer; type: cell-based
A549 cells [2] = test: Wound-healing assay; type: cell-based, human; conditions: 24 h
Protocol: Wound-healing assay was carried out to evaluate the inhibitory effects of (A) GMI or (B) AG1478 on A549 cell migration. Confluent monolayers of A549 cells were scarred, and repair was monitored microscopically after 24 h of treatment with (A) GMI or (B) AG1478. The cells migrating into the wound area were counted on the basis of the dashed line as time zero. On wound-healing assay, the cancer cells were cultured onto 24-well plates and grown in medium containing 10% FBS to nearly confluent cell monolayer. A plastic pipette tip was used to draw a linear “wound” in the cell monolayer of each well. The monolayer was then washed twice with PBS to remove debris or detached cells, and GMI was added at different concentrations ([…]). PBS was added to the control well as the solvent control. After 24 h of incubation, the cells were washed twice with PBS, fixed with 95% alcohol, and stained with 10% Giemsa solution (Merck). The cells were photographed under a light microscope (magnification, ×200). The experiments were performed in triplicate. After incubation with 2-8 μg/ml of GMI for 24 h, the cells that migrated to the denuded zone were photographed.

SN12C = test: NCI60 in vitro screening, Renal Cancer; type: cell-based
SK-MEL-28 = test: NCI60 in vitro screening, Melanoma; type: cell-based

B1: GMI: immunomodulatory protein from Ganoderma microsporum, amino acid sequence SEQ ID NO: 3, manufactured by Mycomagic Biotechnology Co., Ltd. (protein, listed as Ganoderma microsporum)
chain: MSDTALIFTLAWNVKQLAFDYTPNWGRGRPSSFIDTVTFPTVLTDKAYTYRVVVSGKDLGVRPSYAVESDGSQKINFLEYNSGYGIADTNTIQVYVIDPDTGNNFIVAQWN
TGI (KM12; KM12): >1.25E2
Percent Growth (KM12; KM12, Log10 Concentration 0.1): 104%
Percent Growth (KM12; KM12, Log10 Concentration 1.1): 89%
Percent Growth (KM12; KM12, Log10 Concentration 2.1): 43%
Percent Growth (KM12; KM12, Log10 Concentration −0.9): 96%
Percent Growth (KM12; KM12, Log10 Concentration −1.9): 100%
Growth Percent (KM12; KM12, one dose): 62.96%
GI50 (KM12; KM12, in µg/mL): 8.92E1
EGF-promoted invasion reduced to (A549 cells [1]; GMI 4 μg/ml, EGF): 52%
invaded cell number (A549 cells [1]; GMI 4 μg/ml, EGF, decreased from 2515±212): 1306±30
invasion reduced to (A549 cells [1]; GMI 4 μg/ml, without EGF): 22%
invaded cell number (A549 cells [1]; GMI 4 μg/ml, without EGF, decreased from 1895±37): 419±6
EGF-promoted invasion reduced to (A549 cells [1]; GMI 16 μg/ml, EGF): less than 5%
invaded cell number (A549 cells [1]; GMI 16 μg/ml, EGF, decreased from 2515±212): 121±39
invasion reduced to (A549 cells [1]; GMI 16 μg/ml, without EGF): less than 9%
invaded cell number (A549 cells [1]; GMI 16 μg/ml, without EGF, decreased from 1895±37): 61±3
EGF-promoted invasion of A549 cells (A549 cells [1]; increasing concentrations of GMI, EGF): significantly inhibits; also recorded: dose-dependent decrease in EGF-promoted invasion
invasion of A549 cells (A549 cells [1]; increasing concentrations of GMI, without EGF): dose-dependent decrease in invasion
TGI (CAKI-1; CAKI-1): 7.29E1
Percent Growth (CAKI-1; CAKI-1, Log10 Concentration 0.1): 98%
Percent Growth (CAKI-1; CAKI-1, Log10 Concentration 1.1): 47%
Percent Growth (CAKI-1; CAKI-1, Log10 Concentration 2.1): −14%
Percent Growth (CAKI-1; CAKI-1, Log10 Concentration −0.9): 100%
Percent Growth (CAKI-1; CAKI-1, Log10 Concentration −1.9): 100%
Growth Percent (CAKI-1; CAKI-1, one dose): 96.04%
GI50 (CAKI-1; CAKI-1, in µg/mL): 1.08E1
TGI (HS 578T): >1.25E2
Percent Growth (HS 578T; Log10 Concentration 0.1): 108%
Percent Growth (HS 578T; Log10 Concentration 1.1): 96%
Percent Growth (HS 578T; Log10 Concentration 2.1): 64%
Percent Growth (HS 578T; Log10 Concentration −0.9): 106%
Percent Growth (HS 578T; Log10 Concentration −1.9): 104%
Growth Percent (HOP-92): 22.29%
TGI (A549/ATCC): >1.25E2
Percent Growth (A549/ATCC; Log10 Concentration 0.1): 94%
Percent Growth (A549/ATCC; Log10 Concentration 1.1): 51%
Percent Growth (A549/ATCC; Log10 Concentration 2.1): 8%
Percent Growth (A549/ATCC; Log10 Concentration −0.9): 99%
Percent Growth (A549/ATCC; Log10 Concentration −1.9): 102%
GI50 (A549/ATCC; in µg/mL): 1.31E1
Growth Percent (A549/ATCC; one dose): 44.29%
TGI (PC-3; PC-3): 3.87E1
Percent Growth (PC-3; PC-3, Log10 Concentration 0.1): 98%
Percent Growth (PC-3; PC-3, Log10 Concentration 1.1): 73%
Percent Growth (PC-3; PC-3, Log10 Concentration 2.1): −76%
Percent Growth (PC-3; PC-3, Log10 Concentration −0.9): 102%
Percent Growth (PC-3; PC-3, Log10 Concentration −1.9): 104%
Growth Percent (PC-3; PC-3, one dose): 79.73%
GI50 (PC-3; PC-3, in µg/mL): 1.79E1
LC50 (PC-3; PC-3, in µg/mL): 8.34E1
TGI (K-562; K-562): >1.25E2
Percent Growth (K-562; K-562, Log10 Concentration 0.1): 101%
Percent Growth (K-562; K-562, Log10 Concentration 1.1): 97%
Percent Growth (K-562; K-562, Log10 Concentration 2.1): 90%
Percent Growth (K-562; K-562, Log10 Concentration −0.9): 98%
Percent Growth (K-562; K-562, Log10 Concentration −1.9): 96%
Growth Percent (K-562; K-562, one dose): 125.37%
TGI (SF-268; SF-268): >1.25E2
Percent Growth (SF-268; SF-268, Log10 Concentration 0.1): 108%
Percent Growth (SF-268; SF-268, Log10 Concentration 1.1): 52%
Percent Growth (SF-268; SF-268, Log10 Concentration 2.1): 4%
Percent Growth (SF-268; SF-268, Log10 Concentration −0.9): 101%
Percent Growth (SF-268; SF-268, Log10 Concentration −1.9): 95%
Growth Percent (SF-268; SF-268, one dose): 39.72%
GI50 (SF-268; SF-268, in µg/mL): 2.02E1
TGI (SNB-19; SNB-19): 4.27E1
Percent Growth (SNB-19; SNB-19, Log10 Concentration 0.1): 95%
Percent Growth (SNB-19; SNB-19, Log10 Concentration 1.1): 66%
Percent Growth (SNB-19; SNB-19, Log10 Concentration 2.1): −58%
Percent Growth (SNB-19; SNB-19, Log10 Concentration −0.9): 98%
Percent Growth (SNB-19; SNB-19, Log10 Concentration −1.9): 98%
Growth Percent (SNB-19; SNB-19, one dose): 58.70%
GI50 (SNB-19; SNB-19, in µg/mL): 1.69E1
LC50 (SNB-19; SNB-19, in µg/mL): 1.08E2
A549 cell migration to the denuded zone (A549 cells [2]; GMI 2-8 μg/ml): dose-dependently suppresses A549 cell migration
EGF-induced migration / wound closure activity (A549 cells [2]; co-treated with EGF): markedly decreased wound closure activity
TGI (SN12C): >1.25E2
Percent Growth (SN12C; Log10 Concentration 0.1): 99%
Percent Growth (SN12C; Log10 Concentration 1.1): 81%
Percent Growth (SN12C; Log10 Concentration 2.1): 30%
Percent Growth (SN12C; Log10 Concentration −0.9): 104%
Percent Growth (SN12C; Log10 Concentration −1.9): 102%
GI50 (SN12C; in µg/mL): 5.05E1
Growth Percent (SN12C; one dose): 74.30%
TGI (SK-MEL-28; SK-MEL-28): >1.25E2
Percent Growth (SK-MEL-28; SK-MEL-28, Log10 Concentration 0.1): 110%
Percent Growth (SK-MEL-28; SK-MEL-28, Log10 Concentration 1.1): 98%
Percent Growth (SK-MEL-28; SK-MEL-28, Log10 Concentration 2.1): 72%
Percent Growth (SK-MEL-28; SK-MEL-28, Log10 Concentration −0.9): 103%
Percent Growth (SK-MEL-28; SK-MEL-28, Log10 Concentration −1.9): 98%
Growth Percent (SK-MEL-28; SK-MEL-28, one dose): 106.96%
